Assays:
[1] = Thermal forced aggregation (SEC); type: physicochemical; details: 24 hours, PBS
Experimental: To assess the aggregation propensity of variant CD80-Fc fusion proteins, 1 mg/ml of CD80-Fc fusion protein was incubated in PBS at increasing temperatures for 24 hours. The samples were analyzed by SEC on an Agilent 1100 (Agilent Technologies, Germany) HPLC system using a YMC-Pack Diol-200 (YMC, Germany) analytical size exclusion chromatography column and PBS supplemented to 400 mM NaCl as running buffer. % aggregation was calculated from the loss of intact peak area. […] ND=Not Determined.

[2] = Viscosity (Anton Paar rheometer); type: physicochemical; details: 20 mM histidine, 8.5% sucrose, pH 5.8
Experimental: The viscosity of CD80-Fc fusion proteins was assessed at various concentrations. Lower viscosity is desired for subcutaneous administration, and providing optimal syringeability and minimal pain to patients. Viscosity was measured using an Anton Paar rheometer and a CP-25 measuring system at 150 rpm. The sample comprised CD80-Fc fusion proteins in 20 mM histidine and 8.5% sucrose at pH 5.8.

[3] = tested on: peripheral blood mononuclear cells (PBMC); experiment: RESTORE cytokine release assay in absence of TCR stimulation; type: cell-based, human; design: IFNγ: unit not given beside the values
Experimental: The ability of variant CD80-Fc fusion proteins to promote cytokine release in the absence of TCR stimulation was assessed in the RESTORE (RESetting T cells to Original Reactivity) assay (Römer et al, Blood, 2011). Freshly isolated peripheral blood mononuclear cells (PBMC) from whole blood of several healthy donors were cultured for 48 hours at […] within RPMI1640 media supplemented with 10% autologous plasma, 10 mM HEPES, 1× GlutaMAX, 1× PenStrep, beta2-mercaptoethanol, NEAA and sodium pyruvate. Following the 48-hour incubation, PBMC were pelleted and resuspended at a final concentration of 10^6/ml with indicated soluble drug. Treatment was allowed for 48 hours then supernatant was harvested and assessed in IL-2 and IFNγ ELISA according to manufacturer's protocol (BioLegend).
Positive controls included CD28 superagonist anti-CD28 clone TGN1412 as IgG1 and IgG4 isotypes and anti-CD3. […] Values shown are the average of 3 technical replicates. D=Donor.

[4] = tested on: CT26 murine colorectal carcinoma tumor cells; experiment: CT26 murine colorectal carcinoma model; type: in vivo, mouse; details: for Day 10 tumor volume: Days 0 and 3; for % tumor growth inhibition: Day 10
Experimental: CT26 murine colorectal carcinoma tumor cells (1×10^6) were subcutaneously implanted in the hind flank of female Balb/c mice. When tumors reached ˜100 mm3 (Day 8), mice were randomized. PBS vehicle control or variant CD80-Fc fusion proteins were dosed intravenously at 0.1 and 1.0 mg/kg on Days 0 and 3. Tumor volume was determined by caliper measurements obtained in 2 dimensions and calculated as width^2×length/2. Error bars are depicted as ±SEM.
IFNγ ELIspot was used to measure tumor-reactive T cells in the spleen in mice treated with CD80-Fc fusion proteins at a 1 mg/kg dose.
Cytotoxic CD8^+ T cells are responsible for killing cancer cells and the measurement of CD8^+ T cells that have infiltrated tumors commonly correlates with efficacy for immune-oncology therapies. For all in vivo studies, tumors were collected ˜1 week after the first dose and dissociated by mincing, followed by incubation in an enzymatic digestion cocktail and homogenization. The resulting cell suspension was filtered and washed, and single cells were stained with antibodies to CD45, CD8, and a viability dye to detect tumor-infiltrating lymphocytes (TILs) by flow cytometry. Data were acquired on a BD LSRFortessa flow cytometer or a Cytek Aurora spectral flow cytometer. Table 31 and FIG. 18 show the amount of tumor-infiltrating CD8+ T cells expressed as a percentage of total immune cells (CD45+). Each value is the average of n=4 mice per group. Treatment with all variant CD80-Fc fusion proteins led to increase in CD8+ TILs in various tumor models.

[5] = Pharmacokinetics in huFcRn transgenic mice; details: 0.1 mg/kg IV
Experimental: PK of CD80-Fc fusion proteins was also assessed in transgenic mice expressing the human neonatal Fc receptor (huFcRn) a-chain transgene under the control of its natural human promoter. Female mice were dosed intravenously with CD80-Fc fusion proteins at 0.1 mg/kg, and blood was collected at the timepoints indicated on the graph. Levels of CD80-Fc in mouse plasma were measured as described above.

Substance: CD80-K89Q-D90Q-E23C-A26C-Fc: disulfide stabilized variant CD80-Fc fusion protein (K89Q, D90Q, E23C, A26C)
- % aggregation ([1]; Table 11, 54.9° C.): 3.2%
- % aggregation ([1]; Table 11, 59.1° C.): 22.8%
- % aggregation ([1]; Table 11, 64° C.): 36.2%
- % aggregation ([1]; Table 12, 40° C.): 0.6%
- % aggregation ([1]; Table 12, 45.3° C.): 2.9%
- % aggregation ([1]; Table 12, 49.4° C.): 0.5%
- % aggregation ([1]; Table 12, 54.9° C.): 6.7%
- % aggregation ([1]; Table 12, 59.1° C.): 55.9%
- % aggregation ([1]; Table 12, 64° C.): 68.8%
- Viscosity ([2]; 107.0 mg/ml): 9.878 cP
- Viscosity ([2]; 148.0 mg/ml): 30.16 cP
- IFNγ ([3]; Table 20, D222, 1 μg/ml): 7.3
- IFNγ ([3]; Table 20, D222, 10 μg/ml): 4.3
- IL-2 ([3]; Table 20, D222, 10 μg/ml): 6.7
- IFNγ ([3]; Table 20, D281, 1 μg/ml): 3.0
- IL-2 ([3]; Table 20, D281, 1 μg/ml): 2.7
- IFNγ ([3]; Table 20, D281, 10 μg/ml): 3.7
- IL-2 ([3]; Table 20, D281, 10 μg/ml): 5.7
- IFNγ ([3]; Table 20, D462, 1 μg/ml): 7.0
- IL-2 ([3]; Table 20, D462, 1 μg/ml): 2.0
- IFNγ ([3]; Table 20, D462, 10 μg/ml): 7.3
- IL-2 ([3]; Table 20, D462, 10 μg/ml): 3.0
- IFNγ ([3]; Table 20, D547, 1 μg/ml): 4.3
- IL-2 ([3]; Table 20, D547, 1 μg/ml): 13.3
- IFNγ ([3]; Table 20, D547, 10 μg/ml): 3.0
- IL-2 ([3]; Table 21, D132, 1.9 μg/ml): 0.0
- IL-2 ([3]; Table 21, D132, 5.6 μg/ml): 0.0
- IL-2 ([3]; Table 21, D132, 16.7 μg/ml): 0.3
- IL-2 ([3]; Table 21, D149, 1.9 μg/ml): 0.0
- IL-2 ([3]; Table 21, D149, 5.6 μg/ml): 0.0
- IL-2 ([3]; Table 21, D149, 16.7 μg/ml): 0.0
- IL-2 ([3]; Table 21, D149, 50 μg/ml): 0.0
- IL-2 ([3]; Table 21, D379, 1.9 μg/ml): 29.0
- IL-2 ([3]; Table 21, D379, 5.6 μg/ml): 2.3
- IL-2 ([3]; Table 21, D379, 16.7 μg/ml): 0.0
- IL-2 ([3]; Table 21, D379, 50 μg/ml): 0.0
- IL-2 ([3]; Table 21, D399, 1.9 μg/ml): 0.0
- IL-2 ([3]; Table 21, D399, 5.6 μg/ml): 2.0
- IL-2 ([3]; Table 21, D399, 16.7 μg/ml): 0.0
- IL-2 ([3]; Table 21, D399, 50 μg/ml): 0.0
- IL-2 ([3]; Table 21, D417, 1.9 μg/ml): 3.0
- IL-2 ([3]; Table 21, D417, 5.6 μg/ml): 0.0
- IL-2 ([3]; Table 21, D417, 16.7 μg/ml): 0.3
- IL-2 ([3]; Table 21, D417, 50 μg/ml): 0.0
- IL-2 ([3]; Table 21, D518, 1.9 μg/ml): 0.0
- IL-2 ([3]; Table 21, D518, 5.6 μg/ml): 2.0
- IL-2 ([3]; Table 21, D518, 16.7 μg/ml): 1.7
- IL-2 ([3]; Table 21, D518, 50 μg/ml): 2.7
- IFNγ ([3]; Table 22, D132, 1.9 μg/ml): 0.0
- IFNγ ([3]; Table 22, D132, 5.6 μg/ml): 78.0
- IFNγ ([3]; Table 22, D132, 16.7 μg/ml): 0.0
- IFNγ ([3]; Table 22, D132, 50 μg/ml): 0.0
- IFNγ ([3]; Table 22, D149, 1.9 μg/ml): 0.0
- IFNγ ([3]; Table 22, D149, 5.6 μg/ml): 0.0
- IFNγ ([3]; Table 22, D149, 16.7 μg/ml): 0.0
- IFNγ ([3]; Table 22, D149, 50 μg/ml): 41.3
- IFNγ ([3]; Table 22, D379, 1.9 μg/ml): 0.0
- IFNγ ([3]; Table 22, D379, 5.6 μg/ml): 0.0
- IFNγ ([3]; Table 22, D379, 16.7 μg/ml): 0.0
- IFNγ ([3]; Table 22, D379, 50 μg/ml): 0.0
- IFNγ ([3]; Table 22, D399, 1.9 μg/ml): 0.0
- IFNγ ([3]; Table 22, D399, 5.6 μg/ml): 0.0
- IFNγ ([3]; Table 22, D399, 16.7 μg/ml): 0.0
- IFNγ ([3]; Table 22, D399, 50 μg/ml): 4.3
- IFNγ ([3]; Table 22, D417, 1.9 μg/ml): 0.0
- IFNγ ([3]; Table 22, D417, 5.6 μg/ml): 0.0
- IFNγ ([3]; Table 22, D417, 16.7 μg/ml): 0.0
- IFNγ ([3]; Table 22, D417, 50 μg/ml): 0.0
- IFNγ ([3]; Table 22, D518, 1.9 μg/ml): 0.0
- IFNγ ([3]; Table 22, D518, 5.6 μg/ml): 0.0
- IFNγ ([3]; Table 22, D518, 16.7 μg/ml): 20.7
- IFNγ ([3]; Table 22, D518, 50 μg/ml): 0.0
- Number of tumor regressions ([4]; 0.1 mg/kg): 5/10
- Day 10 tumor volume ([4]; 0.1 mg/kg IV): 289.9 mm^3
- % tumor growth inhibition ([4]; 0.1 mg/kg): 75.80%
- Number of tumor regressions ([4]; 1 mg/kg): 6/10
- Day 10 tumor volume ([4]; 1 mg/kg IV): 305.3 mm^3
- % tumor growth inhibition ([4]; 1 mg/kg): 74.51%
- # IFNγ-producing spots (tumor-reactive T cells in spleen) ([4]; 1 mg/kg, average of n = 4 mice): 547.375
- AUC [5]: 182 µg·h/mL
- CL [5]: 8.6 mL/day/kg
- T1/2 [5]: 211 h
- Vdss [5]: 0.109 L/kg
- Cmax ([5]; average of 3 animals): 2200 ng/mL

— US20240209061A1, “FUSION PROTEINS AND USES THEREOF” (Pfizer Inc., priority 2020, published 2024)
